Consider 167 variants from the Human Domainome abundance scans (Beltran et al. 2025).

± gives the uncertainty stated by the source.

B1: Max-interacting protein 1, residues 70 to 120; numbered along this chain, P50539 (parent)
chain: STHNELEKNRRAHLRLCLERLKVLIPLGPDCTRHTTLGLLNKAKAHIKKLE
B2: Cyclin-F, residues 28 to 80; numbered along this chain, P41002 (parent)
chain: RNLTILSLPEDVLFHILKWLSVEDILAVRAVHSQLKDLVDNHASVWACASFQE

The first data set covers variants of B1. In words: abundance fitness (aPCA) (normalised: wild type 0, dead -1); higher = more abundant; growth selection in yeast, the domain comes from the species named. The following applies: Homo sapiens.
E19M: the abundance fitness is -0.678 ± 0.14. On to E19K, for which the abundance fitness is -0.467 ± 0.2.

E19S: the abundance fitness is -0.083 ± 0.11. Same read-out and setting: to A45E belongs -0.136 ± 0.12; to A45P, -0.631 ± 0.14; to D30S, 0.279 ± 0.07. On the same count and under the same terms, to D30Y belongs -0.007 ± 0.077; to K49W, -0.041 ± 0.1. Same read-out and setting: for H3G the value was 0.197 ± 0.08; for L37A, -0.026 ± 0.093; for L37F, 0.105 ± 0.15. Take L37V: the abundance fitness was -0.023 ± 0.089. On the same count and under the same terms, to T36C belongs 0.085 ± 0.13; to T36S, -0.132 ± 0.094; to H13S, -0.085 ± 0.094. Same read-out and setting: for N41L the value was -0.711 ± 0.18; for N41V, -0.707 ± 0.17. Same read-out and setting: for N41T the value was -0.555 ± 0.2. Regarding L39Y, the abundance fitness was -0.555 ± 0.16. The same measure, in the same setting: for L39A the value was -0.704 ± 0.15; for L14A, -0.197 ± 0.096. Same read-out and setting: to L14N belongs -0.735 ± 0.24; to L14D, -0.274 ± 0.18; to L14Y, 0.111 ± 0.15. L14W: the abundance fitness amounted to 0.187 ± 0.091. With K48H, the abundance fitness is -0.74 ± 0.21. For the variant K48D, the abundance fitness was -0.65 ± 0.15. R10P: the abundance fitness stood at 0.298 ± 0.14. The same measure, in the same setting: to R10V belongs -0.101 ± 0.082; to R10F, -0.164 ± 0.13; to L6N, -0.329 ± 0.31. Same read-out and setting: for L6Q the value was 0.18 ± 0.13. Turning to L6A, the abundance fitness was -0.171 ± 0.1. Consider K22Y, for which the abundance fitness is -0.884 ± 0.36.

For K22W, the abundance fitness was -1.08 ± 0.15. Still for that read-out and setting: to A12Y belongs -0.932 ± 0.23.

Consider L18F, for which the abundance fitness is -0.001 ± 0.15. On the same count and under the same terms, for L18I the value was -0.295 ± 0.21; for L50R, -0.459 ± 0.1. On the same count and under the same terms, for L50D the value was -0.423 ± 0.17. For the variant T35V, the abundance fitness was determined as 0.057 ± 0.086. Turning to T35L, the abundance fitness was -0.017 ± 0.092.

On to T35R, for which the abundance fitness is 0.225 ± 0.075. Same read-out and setting: for P29T the value was 0.177 ± 0.12; for P29S, 0.359 ± 0.092. Same read-out and setting: to L40H belongs -0.86 ± 0.32. Still for that read-out and setting: to L40M belongs -0.098 ± 0.13. H46T: the abundance fitness came out at 0.154 ± 0.14.

As to H46E, the abundance fitness was -0.527 ± 0.14. Same read-out and setting: for R33P the value was -0.225 ± 0.13; for C17E, -0.681 ± 0.17; for C17V, 0.061 ± 0.092. Still for that read-out and setting: to C31I belongs 0.167 ± 0.13; to R20V, -0.797 ± 0.13; to R20Q, -0.405 ± 0.18. Take V23K: the abundance fitness is 0.547 ± 0.13. On to I47G, for which the abundance fitness was -0.539 ± 0.09. As for I47K, the abundance fitness is -0.858 ± 0.14. The same measure, in the same setting: for E51P the value was -0.089 ± 0.34; for E51L, -0.182 ± 0.25.

As to A43F, the abundance fitness was -0.182 ± 0.12. For K42T, the abundance fitness is -0.196 ± 0.12.

Consider K42F, for which the abundance fitness was -0.256 ± 0.13. Regarding I25E, the abundance fitness is -0.384 ± 0.19. Still for that read-out and setting: for I25K the value was -0.995 ± 0.26; for P26N, 0.063 ± 0.28. As for P26L, the abundance fitness is -0.326 ± 0.095. Take S1M: the abundance fitness is -0.797 ± 0.38. Same read-out and setting: for L27C the value was -0.573 ± 0.17; for L27E, -0.423 ± 0.1; for L21F, -0.398 ± 0.16. The same measure, in the same setting: to L21T belongs -0.832 ± 0.17.

Consider T2G, for which the abundance fitness is -0.69 ± 0.12.

For the variant T2N, the abundance fitness was 0.128 ± 0.075.

As to T2L, the abundance fitness is -0.519 ± 0.075. Consider T2C, for which the abundance fitness is -0.415 ± 0.12. With T32W, the abundance fitness stood at 0.033 ± 0.095. Still for that read-out and setting: to T32S belongs -0.109 ± 0.088; to T32L, 0.374 ± 0.089; to K8T, -0.377 ± 0.12. Same read-out and setting: for K8E the value was -0.291 ± 0.11; for N4I, 0.278 ± 0.21; for N4V, -0.404 ± 0.1. As to R15N, the abundance fitness was -0.777 ± 0.17. Same read-out and setting: for L24I the value was 0.137 ± 0.23. On the same count and under the same terms, to L24P belongs -0.938 ± 0.29; to E7D, -0.184 ± 0.13.

With G28L, the abundance fitness is -0.142 ± 0.096. Same read-out and setting: to G28F belongs 0.069 ± 0.19; to G28W, 0.199 ± 0.11; to G28C, -0.155 ± 0.12. As for G28I, the abundance fitness came out at 0.402 ± 0.12.

In the next data set the parent is B2. The data set is described as above. The following applies: Homo sapiens.
On to S50T, for which the abundance fitness was -0.166 ± 0.13. On to S50K, for which the abundance fitness was -0.03 ± 0.13. Same read-out and setting: for S50H the value was -0.319 ± 0.16.

For S50F, the abundance fitness is -0.668 ± 0.11. Consider S50W, for which the abundance fitness was -0.434 ± 0.098. Same read-out and setting: to S50Y belongs -0.369 ± 0.2; to S50Q, 0.105 ± 0.12; to S50L, -0.485 ± 0.099. The same measure, in the same setting: for S50N the value was -0.394 ± 0.27; for S50V, -0.621 ± 0.14. Still for that read-out and setting: for S50D the value was 0.029 ± 0.14.

S50P: the abundance fitness was -0.1 ± 0.12. Same read-out and setting: to S50M belongs -0.483 ± 0.17; to S50E, -0.114 ± 0.16; to S44H, 0.222 ± 0.32. Same read-out and setting: for S44Q the value was -0.306 ± 0.21; for S44M, -0.223 ± 0.12; for S44N, 0.11 ± 0.24. Turning to S44D, the abundance fitness is 0.212 ± 0.13. Still for that read-out and setting: for S44F the value was -0.278 ± 0.12. On to S44T, for which the abundance fitness was -0.307 ± 0.12.

S44R: the abundance fitness was -0.281 ± 0.079. With S44G, the abundance fitness turned out to be 0.05 ± 0.084. Still for that read-out and setting: to S44Y belongs -0.428 ± 0.15.

For the variant S44V, the abundance fitness is -0.535 ± 0.096.

In the case of S44L, the abundance fitness is -0.499 ± 0.1. Consider S44K, for which the abundance fitness was -0.104 ± 0.11. Regarding S44W, the abundance fitness was -0.485 ± 0.14. With S44A, the abundance fitness was -0.119 ± 0.099. On the same count and under the same terms, to E53F belongs -0.582 ± 0.42; to E53R, -0.068 ± 0.15.

E53M: the abundance fitness is -0.39 ± 0.34. Still for that read-out and setting: to E53A belongs -0.151 ± 0.17; to E53L, -0.543 ± 0.42; to E53K, 0.081 ± 0.26. Turning to E53S, the abundance fitness is -0.467 ± 0.22. As for E53C, the abundance fitness is -0.527 ± 0.41. Consider E53I, for which the abundance fitness is -0.533 ± 0.49. Take E53H: the abundance fitness was -0.878 ± 0.36. The same measure, in the same setting: to E53V belongs -0.538 ± 0.19; to E53D, -0.178 ± 0.33; to E53G, -0.069 ± 0.13.

With E53T, the abundance fitness was -0.349 ± 0.25. Same read-out and setting: to E53Q belongs -0.051 ± 0.26; to E53P, -0.375 ± 0.34; to C48Q, -0.246 ± 0.17.

With C48K, the abundance fitness is -0.307 ± 0.16.

On to C48N, for which the abundance fitness amounted to 0.184 ± 0.17. The same measure, in the same setting: for C48L the value was 0.075 ± 0.085; for C48A, -0.232 ± 0.11.

C48V: the abundance fitness is -0.406 ± 0.093. C48P: the abundance fitness amounted to 0.42 ± 0.12. On the same count and under the same terms, for C48D the value was -0.14 ± 0.2. As for C48G, the abundance fitness was 0.179 ± 0.088.

Turning to C48Y, the abundance fitness is -0.367 ± 0.12. The same measure, in the same setting: for C48I the value was -0.306 ± 0.18; for C48W, -0.312 ± 0.11; for C48R, -0.321 ± 0.1.

Turning to C48S, the abundance fitness is 0.14 ± 0.095.

Consider C48H, for which the abundance fitness was -0.302 ± 0.15. On the same count and under the same terms, for C48M the value was -0.238 ± 0.13. Still for that read-out and setting: to C48T belongs -0.066 ± 0.12; to C48F, -0.364 ± 0.13. Same read-out and setting: for N41S the value was 0.052 ± 0.1. As for N41V, the abundance fitness was -0.484 ± 0.15. Same read-out and setting: for N41H the value was -0.035 ± 0.18; for N41G, -0.033 ± 0.11. With N41R, the abundance fitness stood at 0.241 ± 0.09. With N41T, the abundance fitness is -0.131 ± 0.15.

N41A: the abundance fitness was -0.071 ± 0.21. As for N41I, the abundance fitness was -0.455 ± 0.21. Turning to N41K, the abundance fitness is 0.231 ± 0.16.

Take N41M: the abundance fitness was -0.272 ± 0.16. Still for that read-out and setting: for N41W the value was -0.733 ± 0.2; for N41Q, 0.128 ± 0.14.
